Consider 64 variants from the supplement of paper PMC7125110.

± gives the standard error. Fewer inactive variants are shown than the library holds.

The labels stand for the following.
B1: glmS ribozyme (parent)
chain: AUAAAAGCGCCAGAACUACAGAAAUGUAGUUGACGAGGAGGAGGUUUAUCGAAUUUUCGGCGGAUGCCUCCAAA

This series covers variants of B1. As to the kind of experiment: self-cleavage kobs at 10000 uM GlcN6P; higher = faster cleavage; RNA array. The conditions noted are these: with glucosamine-6-phosphate. In a few lines:
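Glucosamine-6-phosphate, from 40 μM to 10 mM in HEPES/KCl/Mg(OAc)2 buffer, was flowed over sequenced MiSeq chips carrying barcoded ribozyme variants transcribed in situ by E. coli RNA polymerase. A hybridised Cy3 probe tracked the variants at 37 °C as tiles were imaged over ~14 h. kobs, kcat and KM were obtained by fitting normalised per-tile medians to exponential decays and then applying weighted Michaelis–Menten fits across concentrations.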
On to A15U C16G G32C, for which the “self-cleavage kobs at 10000 uM GlcN6P” value turned out to be 8.84e-05 ± 2.6e-05 s⁻¹.

On to A6G U55G C70U, for which the “self-cleavage kobs at 10000 uM GlcN6P” value amounted to 8.99e-05 ± 1.5e-05 s⁻¹.

Turning to C10A C11A G44A, the “self-cleavage kobs at 10000 uM GlcN6P” value is under 1e-05 s⁻¹.

Turning to A14G C58U C71U, the “self-cleavage kobs at 10000 uM GlcN6P” value was determined as 0.00012 ± 2.1e-05 s⁻¹.

G9C G38C G43U: the “self-cleavage kobs at 10000 uM GlcN6P” value was under 1e-05 s⁻¹.

For G37C A64G C70U, the “self-cleavage kobs at 10000 uM GlcN6P” value turned out to be 4.49e-05 ± 1.6e-05 s⁻¹.

In the case of A15U A39G G62A, the “self-cleavage kobs at 10000 uM GlcN6P” value is under 1e-05 s⁻¹.

Take A1U U2G A3G C8G C34G: the “self-cleavage kobs at 10000 uM GlcN6P” value is under 1e-05 s⁻¹.

In the case of A33U G35C G62U C67U, the “self-cleavage kobs at 10000 uM GlcN6P” value is under 1e-05 s⁻¹.

For the variant A6G C10A U30C U49A, the “self-cleavage kobs at 10000 uM GlcN6P” value is under 1e-05 s⁻¹.

Take A12G C58A C71A: the “self-cleavage kobs at 10000 uM GlcN6P” value was 5.83e-05 ± 1.4e-05 s⁻¹.

For C11U A12G U45G C67A, the “self-cleavage kobs at 10000 uM GlcN6P” value amounted to 5.25e-05 ± 1.6e-05 s⁻¹.

For A39U U55C U65C, the “self-cleavage kobs at 10000 uM GlcN6P” value turned out to be 0.00435 ± 0.00052 s⁻¹.

In the case of G51U U54C G66U, the “self-cleavage kobs at 10000 uM GlcN6P” value was under 1e-05 s⁻¹.

Consider C11U A15G C58G C68U, for which the “self-cleavage kobs at 10000 uM GlcN6P” value came out at 0.000112 ± 2.5e-05 s⁻¹.

With G32A A64U C68U, the “self-cleavage kobs at 10000 uM GlcN6P” value was under 1e-05 s⁻¹.

For the variant G7C G62C, the “self-cleavage kobs at 10000 uM GlcN6P” value is under 1e-05 s⁻¹.

In the case of A42G U45A U65C, the “self-cleavage kobs at 10000 uM GlcN6P” value was determined as 0.00105 ± 0.00028 s⁻¹.

On to A6U A33G C34U G44U U49C U57G, for which the “self-cleavage kobs at 10000 uM GlcN6P” value is under 1e-05 s⁻¹.

For G13U U30A G43C, the “self-cleavage kobs at 10000 uM GlcN6P” value was under 1e-05 s⁻¹.

In the case of A6G A52U G60A G66A, the “self-cleavage kobs at 10000 uM GlcN6P” value is under 1e-05 s⁻¹.

A33C U46G A52U: the “self-cleavage kobs at 10000 uM GlcN6P” value is under 1e-05 s⁻¹.

For G9C C34U, the “self-cleavage kobs at 10000 uM GlcN6P” value was under 1e-05 s⁻¹.

Consider C50U G59C A64G C71U, for which the “self-cleavage kobs at 10000 uM GlcN6P” value is under 1e-05 s⁻¹.

With A15G G63U A64G, the “self-cleavage kobs at 10000 uM GlcN6P” value is under 1e-05 s⁻¹.

For the variant A4U A39G C70A, the “self-cleavage kobs at 10000 uM GlcN6P” value came out at 0.000171 ± 4.7e-05 s⁻¹.

As to A12G A42G U47C, the “self-cleavage kobs at 10000 uM GlcN6P” value came out at 0.000197 ± 3.9e-05 s⁻¹.

As to C11U U55G U65A, the “self-cleavage kobs at 10000 uM GlcN6P” value was 4.36e-05 ± 2e-05 s⁻¹.

A14C G38C G60U: the “self-cleavage kobs at 10000 uM GlcN6P” value was under 1e-05 s⁻¹.

As to G9U G43U A53C, the “self-cleavage kobs at 10000 uM GlcN6P” value is under 1e-05 s⁻¹.

A53G G63C: the “self-cleavage kobs at 10000 uM GlcN6P” value was under 1e-05 s⁻¹.

U45A A53G U55A U65A C67A: the “self-cleavage kobs at 10000 uM GlcN6P” value turned out to be 0.000759 ± 0.00025 s⁻¹.

Consider C8A U56A A64G, for which the “self-cleavage kobs at 10000 uM GlcN6P” value was under 1e-05 s⁻¹.

For the variant C10U A42C A52U, the “self-cleavage kobs at 10000 uM GlcN6P” value is under 1e-05 s⁻¹.

Regarding A6G C58U A64U, the “self-cleavage kobs at 10000 uM GlcN6P” value was under 1e-05 s⁻¹.

Regarding G13C G43A, the “self-cleavage kobs at 10000 uM GlcN6P” value is under 1e-05 s⁻¹.

For the variant A15G C16U G51U, the “self-cleavage kobs at 10000 uM GlcN6P” value was under 1e-05 s⁻¹.

On to A53C U69C, for which the “self-cleavage kobs at 10000 uM GlcN6P” value stood at 0.00127 ± 0.00031 s⁻¹.

Consider C11U G29A A39C, for which the “self-cleavage kobs at 10000 uM GlcN6P” value came to 3.89e-05 ± 1.6e-05 s⁻¹.

For C10A A12G A52G C70A, the “self-cleavage kobs at 10000 uM GlcN6P” value came out at 6.91e-05 ± 1.7e-05 s⁻¹.

Turning to U49A U54C C67G, the “self-cleavage kobs at 10000 uM GlcN6P” value is under 1e-05 s⁻¹.

In the case of G13A U46A, the “self-cleavage kobs at 10000 uM GlcN6P” value is 4.05e-05 ± 1.3e-05 s⁻¹.

Turning to G7C A15C G41A, the “self-cleavage kobs at 10000 uM GlcN6P” value is under 1e-05 s⁻¹.

As to A14G A15G A48C, the “self-cleavage kobs at 10000 uM GlcN6P” value was 0.00148 ± 0.00029 s⁻¹.

Turning to G13C A42C C50U, the “self-cleavage kobs at 10000 uM GlcN6P” value was under 1e-05 s⁻¹.

As for A6C U31A G44A U65A, the “self-cleavage kobs at 10000 uM GlcN6P” value was under 1e-05 s⁻¹.

For the variant C8G G9U G66C C68G, the “self-cleavage kobs at 10000 uM GlcN6P” value was under 1e-05 s⁻¹.

As to G35U G41U C67G, the “self-cleavage kobs at 10000 uM GlcN6P” value was under 1e-05 s⁻¹.

On to G29A A33U, for which the “self-cleavage kobs at 10000 uM GlcN6P” value was determined as 3.01e-05 ± 5.5e-06 s⁻¹.

On to G29C G41C A42U, for which the “self-cleavage kobs at 10000 uM GlcN6P” value is under 1e-05 s⁻¹.

A12C C16G U49A C68A: the “self-cleavage kobs at 10000 uM GlcN6P” value was under 1e-05 s⁻¹.

On to C8U G9U G37A C67G, for which the “self-cleavage kobs at 10000 uM GlcN6P” value is under 1e-05 s⁻¹.

For the variant G41U U57C A64C, the “self-cleavage kobs at 10000 uM GlcN6P” value is under 1e-05 s⁻¹.

As to C34G G35U G38A C50A U69G, the “self-cleavage kobs at 10000 uM GlcN6P” value was 0.000375 ± 5.4e-05 s⁻¹.

On to A14G C16A G40C G63U, for which the “self-cleavage kobs at 10000 uM GlcN6P” value is under 1e-05 s⁻¹.

As for U31G G43C U45G, the “self-cleavage kobs at 10000 uM GlcN6P” value stood at 0.000273 ± 8.2e-05 s⁻¹.

As to G7U A15C A36G, the “self-cleavage kobs at 10000 uM GlcN6P” value is under 1e-05 s⁻¹.

Regarding A33C G35C U47A, the “self-cleavage kobs at 10000 uM GlcN6P” value is under 1e-05 s⁻¹.

As for A14U A64C, the “self-cleavage kobs at 10000 uM GlcN6P” value was found to be 2.75e-05 ± 1.3e-05 s⁻¹.

For the variant U30G A36G G40U C68A, the “self-cleavage kobs at 10000 uM GlcN6P” value is under 1e-05 s⁻¹.

For the variant A14U C19U C58G, the “self-cleavage kobs at 10000 uM GlcN6P” value stood at 9.16e-05 ± 2.1e-05 s⁻¹.

As for U30G U47C C68U, the “self-cleavage kobs at 10000 uM GlcN6P” value came out at 0.000171 ± 3.3e-05 s⁻¹.

Turning to C11U G38U U45A A48U C71G, the “self-cleavage kobs at 10000 uM GlcN6P” value was under 1e-05 s⁻¹.

Turning to C11A A42U G51U G60C, the “self-cleavage kobs at 10000 uM GlcN6P” value was under 1e-05 s⁻¹.
